Positions count from the first letter of the chain named.
B1: anti-CTGF scFv B2 (scFv, V domains shown)
VH: QVQLVQSGAEVKKPGESLKISCKGSGYKFTSYWIAWVRQMPGKGLEWMGIIYPGGSDTRYSPSFQGQVTISDDRSSSTTYLQWSSLKASDTAIYYCARSGELMDVWGQGTTVTVSS
VL: SYVLTQPPSVSVSPGQTVSITCSGDKLGNKYASWYQQRPGQSPILVIYQDTKRPSGIPERFSGSNSGNTATLTISGTQAMDEADYYCQAWDSNTAFFGTGTKVTVL
notes: VH of scFv B2; the classical (Gly4Ser)3 linker between VH and VL; VL of scFv B2; Order VH-linker-VL as in the library construction; Selected from a fully human phage library made from PBMCs of RA patients; also called parental scFv B2; source: E. coli (pET28a, IPTG induced), purified (Ni Sepharose)
B2: mut-scFv B2 (scFv, V domains shown)
VH: B1 VH with S99L, E101G, L102A
VL: B1 VL
notes: VH of mut-scFv B2; as the VH of m2 with three changes in VH-CDR3; the classical (Gly4Ser)3 linker between VH and VL; VL as the VL of m2; source: E. coli (pET28a, IPTG induced), purified (Ni Sepharose)
B3: anti-CTGF IgG mut-B2 (antibody, V domains shown)
VH: B1 VH with S99L, E101G, L102A
VL: B1 VL with V103L
notes: heavy chain: VH of m3 with human IgG1 constant region; light chain: VL of m3 with antibody constant region; Human IgG1 format; also called full-length antibody IgG mut-B2; source: ExpiCHO, transiently expressed, purified from supernatant (Protein G Sepharose); copies: 2 + 2

What was measured:
[1] = molecular target: T1, recombinant human connective tissue growth factor (CTGF) (Homo sapiens, UniProt P29279); test: cell-based or functional assay
T1 sequence (P29279 27-349): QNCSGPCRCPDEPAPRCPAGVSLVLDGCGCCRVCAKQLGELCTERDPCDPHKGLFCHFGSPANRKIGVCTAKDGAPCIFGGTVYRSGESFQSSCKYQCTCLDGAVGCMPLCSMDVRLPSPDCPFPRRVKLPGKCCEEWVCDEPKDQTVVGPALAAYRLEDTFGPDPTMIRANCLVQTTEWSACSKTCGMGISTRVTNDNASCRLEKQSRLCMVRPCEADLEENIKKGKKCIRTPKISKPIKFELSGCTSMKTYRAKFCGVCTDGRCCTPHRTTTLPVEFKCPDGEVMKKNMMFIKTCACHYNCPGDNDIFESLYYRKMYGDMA

[2] = molecular target: T1, recombinant human connective tissue …; test: SPR; Biacore T200; CTGF amine-coupled on a CM5 chip; scFvs or IgG in running buffer PBS pH 7.4 flowed for 3 min at 10 µl/min, 5 min dissociation, regeneration with 1 M NaCl; details: both partners purified

Row | Binder | EC50 of inhibition of CTGF-induced HUVEC proliferation, CCK-8 assay, scFv 1-500 nM [1] [nM] | Kd [2] [nM] | koff [2] [s⁻¹] | kon [2] [M⁻¹ s⁻¹]
1 | B1 | 37.4 | 252 | 0.00574 | 22800
2 | B2 | 27.5 | 1.96 | 0.00222 | 1.13e+06
3 | B3 | – | 0.782 | 0.00365 | 4.67e+06

From paper PMC9985226, “A fully human connective tissue growth factor blocking monoclonal antibody ameliorates experimental rheumatoid arthritis through inhibiting angiogenesis” (BMC Biotechnology, 2023)
